Data: the DeepSol protein solubility set

Assay: soluble on expression in E. coli; label from the status in PepcDB or PDB records
For “MSLRVLVMVNDFPNKDNSYTANIFVKEQVKALSEFVEEINVIVPIPRGIELYRKTSYRDYAIGENVHVHFVKYINPLFPIAYSKLRREWIWLEHRALTNFIKKKDIKFDIIHAHYTWPSGAVGVKLKEEYKVPLVITEHTSQTFNRYITTRDPLAREIWQKADIIVRVRKGDIDLFSRVGITPSKIRYIPNGFDGNKFYPIPQEIARRKLNLVEYEKIIINVANMYSRVKGHEYLLRAFSKVAENTSDAFLILVGSGKLLSHLKKLADNLYLGHRVLFAGSKPHDEIPLWMNAADLFVLPSLRESFGVVQIEAMACGVPVVATRNGGSEEIIISEDYGLLCEPANPKELAEKILIALEKEWDREKIRKYAEQFTWENIAKKTLEVYRGVLKEGHHHHHH”, the “soluble on expression in E. coli” value was “soluble”. For “EKIAHMAVSRGNGARLLVDGEATFAALFAALDAARHYVLIQFYIVRDDDLGLELRDRLIAAAQRGVKVRFLTDAIGSYGLSDNYIEDLRAAGIDIANPRKQRGPNTRFQVNYRNHRKTVVVDGQTGFIGGHNVGVEYLGQDPVMGRWRDTHVQITGPSVLQLQLVFAEDWHWARGEDLLDLLSWETRLDPQDADALIVATGPGDRTESGAMM”, the “soluble on expression in E. coli” value was “not soluble”. In the case of “MAHHHHHHMTRDDGTQVAQLLSEGKYNLPMFLRYLKASSMEGDQPDKSLLLGILLQSLARFQTSDFTACMCLVPSHVQDSPSVEKELNYIYGLENLLSCGLFARFWTQWSSVKEHLPESFHFEARVRTSILETICITMESIPTEKLATYLAVSPDQVQKVVHNAMKDSEDRDMKVMAYDSGSVVFHRNRFNYPQAGAAQDAIRFTDVSSVIHNDVPRRGAAVAADETRDVRARTWARMADE”, the “soluble on expression in E. coli” value was “soluble”. With “MSFQNQFTKTTTDANLMETVHHGSAEYPFRYYYENIALFDFKCIDWHWHSELEFIYIESGNVVFDIGTVHFELNEGNGIMINSKILHRLQSSSDAIIPNFLFQPSFIAPQDSLIYKKYINPVISSSLEYLVFQPDIPWQKKALEIIKTIIAVQETEFNREIIVSMSVQQLWILLLENLTFDQFENMGAVISRTRLQLMMQYVHAHYSENITLEDIARTANISKSTALHLFQNNLKLTPVKYLINYRLTQAALLLINTEEKIATISNNTGFNNVDHFCRTFKKTYKMTPTDYRNQERAPVS” the “soluble on expression in E. coli” value was “not soluble”. For “LGGNANAGLEVLKDATAQAIADAKALLAAGKVSVKIQEPCDEILFSRAKVWNGEKWACVTIVGGHTNIVHIETHNGVVFTQQACVTEGEQESPLTVLSRTTLAEILKFVNEVPFAAIRFILDSAKLNCALSQEGLSGNWGLHIGATLEKQCARGLLAKDLSSSIVIRTSAASDARMGGATLPAMSNSGSGNQGITATMPVVVVAEHFGADDERLARALMLSHLSAIYIHNQLPR”, the “soluble on expression in E. coli” value was “not soluble”. For “MSLTNSDWMPTASISQLKQRATLLRQIREFFAERNVLEVETPAMSHATVTDIHLHTFKTEFVGPGYAKGSALHLMTSPEFHMKRLLAAGSGCIYQLGKAFRNEENGRYHNPEFTMLEWYRIGFDHHALMDEMDALLQLVLRCGSAERMTYQEAFLNVLGVCPLEEEMRELKQVAATLGLSDIAEPEEDRDTLLQLLFSIGIEPKIGQITPAFVYDFPASQAALAKINPADPRVADRFEVYFKGIELANGFHELDNPAEQLARFKADNAKRLEMGLTEQPIDYHLIAALEAGLPECAGVALGIDRLIMLALGEDHIDKVTAFPFPRAEGHHHHHH”, the “soluble on expression in E. coli” value was “soluble”. With “IQEHAIDLSQKSALVIDEELYLPELSLDTLKGLETLAPFGMNNKKPIFLLRDFTVKQVRTMGQNGAHLKLKVAQEQAVFDLLAFNYGSLVTEFQQAQHLELAVTLSVNRWNGNTSLQ” the “soluble on expression in E. coli” value was “not soluble”. With “GGVIATQMTYKVYMSGTVNGHYFEVEGDGKGRPYEGEQTVKLTVTKGGPLPFAWDILSPQCQYGSIPFTKYPEDIPDYVKQSFPEGFTWERIMNFEDGAVCTVSNDSSIQGNCFTYHVKFSGLNFPPNGPVMQKKTQGWEPSSERLFARGGMLIGNNFMALKLEGGGHYLCEFKTTYKAKKPVKMPGYHYVDRKLDVTNHNKDYTSVEQCEISIARKPVVA” the “soluble on expression in E. coli” value was “soluble”. In the case of “MGSDKIHHHHHHMTALTPAAFHSDRNRHDAHVARIREVRPGLRIHSDDATDEFDAVMSGQCSPGLHLVLLLEGALDVSYGSRRVVLTTDGRRTGRADRDAVRPAVRMQSFLLNAVEPDTFRRRLSKGGYARRLSLAMSGEWLGHLQAASRGVLPEQLGTMLSAHLAIRFWQPTPRATALAEQIVRPPAYQPMLQAIYLESRVLELLAEAFTPLETDAAQAADASLGSRDYRRMAELRAFLASDAAQALSIDDIARHAGMSANAMQRQFRAAYGTTVFDFVREHHLQRARLALERDAVSVKQAAALAGYTSAANFATAYKRRFGVTPTLARRSDKR”, the “soluble on expression in E. coli” value was “not soluble”. With “MAELILNQRPYPRDLGKIVCVGRNYAAHAKELNNPIPSSPILFIKPASSAVPFGPVFSIPKDQGSVHHELEIAILIGKALSRASTEQVAESIAGIGLGLDLTLRDVQDQLKEKGHPWERAKSFDGACPLTEFVAVNLASEDEWQAIGLTLEKNGQFQQQGSSAEMLFPILPLIAHMSEHFSLQPGDVILTGTPAGVGPLEVGDSLSAKLSLEDNVLLTCDGVVI” the “soluble on expression in E. coli” value was “soluble”. For “MTKKLHIKTWGCQMNEYDSSKMADLLGSTHGYELTEIAEEADVLLLNTCSIREKAQEKVFHQLGRWKALKDLNPNLIIGVGGCVASQEGAHIRERAHYVDVIFGPQTLHRLPEMINHVQGTRSPIVDISFPEIEKFDRLPEPRADGPTAFVSIMEGCNKYCTFCVVPYTRGEEVSRPCDDVLFEIAQLAAQGVREVNLLGQNVNAYRGETYDGEICSFAELLRLVAAIDGIDRVRFTTSHPIEFTDDIISVYEDTPELVSFLHLPVQSGSDRVLTMMKRRHTALEYKAIIRKLHNARPGILISSDFIIGFPGETQADFEQTMKLIADVNFDMSYSFVYSARPGTPAADMVDDVLEEEKKQRLYLLQDRITKQAMRFSRLMLGTVQRILVEGTSRKSVMELSGRTENNRVVNFEGTPDMIGKFVDVEIVDVYTNSLRGIVVRTEDQMDLRVHESPSSVIARTRKENEIGVGFYQPLEHHHHHH”, the “soluble on expression in E. coli” value was “soluble”. For “MSLPIRIDKKLPAVEILRTENIFVMDDQRAAHQDIRPLKILILNLMPQKMVTETQLLRHLANTPLQLDIDFLYMESHRSKTTRSEHMETFYKTFPEVKDEYFDGMIITGAPVEHLPFEEVDYWEEFRQMLEWSKTHVYSTLHICWGAQAGLYLRYGVEKYQMDSKLSGIYPQDTLKEGHLLFRGFDDSYVSPHSRHTEISKEEVLNKTNLEILSEGPQVGVSILASRDLREIYSFGHLEYDRDTLAKEYFRDRDAGFDPHIPENYFKDDDVNQVPCLCWSSSAALFFSNWVNHAVYQETPFDWRKIEDDASAYGYLEGHHHHHH”, the “soluble on expression in E. coli” value was “soluble”. In the case of “MNQGEIVYQDDDDYYDESEIYDNYEEGAEFIEVNGQLVPHNPAQQNRPGTSSMIQQHNRSMEVNQGLVKDEPIDTSSHRVYVPPPRPVQRKPGPSTPGSSQYTVRNLSNLSGSPSMYDRQPASLPRTVQPMGLEMGNSEQRKVYIDMKDHVSHIRLKTKKKVFAPGQRKPCNCTKSQCLKLYCDCFANGEFCRDCNCKDCHNNIEYDSQRSKAIRQSLERNPNAFKPKIGIARGGITDIERLHQKGCHCKKSGCLKNYCECYEAKVPCTDRCKCKGCQNTETYRMTRYKNSGGAVSNTNALMSLTNASSTATPDSGPGSVVTDEHGDDYEDMLLSHKPKVEMDPRRFPWYYMTDEVVEAATMCMVAQAEEALNYEKVQTEDEKLINMEKLVLREFGRCLEQMITNTTELTQDLDAAPTDDIPGPSTSTS”, the “soluble on expression in E. coli” value was “not soluble”. With “MYGSEGGAMRIVAGVGENRNMERAASLADFEVDLVHSEEEFIEELRRGAAAYVRGSLPAANIMAELKKGGPLNRASWIEVGANGFLLAPVGIDEGRTVDDRFKIAVSASEFLRKTGEEPRVGVISGGRRGDLGRSPEVDRSIHEGEFLTSMIKDKYRVRHYHILIEEAVADGCNVIIAPDGITGNLIFRSLVLVGTARSYGAVALGFDGIFVDTSRSQTAEGYLRALKFAHWLARGWNEDNE” the “soluble on expression in E. coli” value was “soluble”. For “MGHHHHHHSHMAAMLNFNLQQLCGPKCRDLKVENPEKYGFEPKKLLDQLTDIYLQLDCARFAKAIADDQRSYSKELFEEVISKMRKAGIKSTIAIEKFKLLAEKVEEIVAKNARAEIDYSDAPDEFRDPLMDTLMTDPVRLPSGTIMDRSIILRHLLNSPTDPFNRQTLTESMLEPVPELKEQIQAWMREKQNSDH”, the “soluble on expression in E. coli” value was “soluble”. For “MGSDKIHHHHHHMRTRDMLPILETLDESGIYSLEVWGGATFDACHRFLNENPWERLREIRKRVKNAKLQMLLRGQNLVGYRHYPDDIVEKFVQKTIENGLDVFRIFDALNDVRNLISSIKAAKKYNADHIQGTICYTISPVHTVEKYVEIANELAALEVDSICLKDMAGMLSPKMAYELVKALKKEVGLPINVHSHYTSGMASMALLKGVEAGAEMIDTCMSPLSSGTSHPPTESMVYALNELGYDTGVKLDILLEAREYFMKIREKYSGYLNPLSTIPDTRVLVYQIPGGMFSNLIAQLQEQNALDRLQEVLEEVPRVREDLGYPPLVTPTSQIVGVQAVINVLVGERYKVVTRETKDLVKGMYGRTPAPIKPEIVKKILGDEKPIDCRPADLLEPEFEKRKQELIEAGIENPSDEDVLLYALFPQTGLKFLKGEMVEEPFPVAGGKIEGSFEVEIDGQKYVVKVAPEK”, the “soluble on expression in E. coli” value was “not soluble”. In the case of “NKSYRSTEQITNFAKALLPDGDQIQAFTRKGDLPKVMIRYGEDAALSSLRSEVEHQLKATNTVAVLTKDLAESKQVYQYLKRYTVTTLMADSDRTMPQGVIVMPIYLAKGLEFDAVVAYDVSATNYPDADSVGILYTIASRAMHHLTLLSIGDVSPLIAQLDPTLFTIEHQVRV”, the “soluble on expression in E. coli” value was “not soluble”. With “ESRSQISRRNQDMLLSVLDLEKVSVNDIMVPRNEIVGIDINDDWKSIVRQLTHSPHGRIVLYRDSLDDAISMLRVREAYRLMTEKKEFTKEIMLRAADEIYFVPEGTPLSTQLVKFQRNKKKVGLVVDEYGDIQGLVTVEDILEEIVGDFTTSMSPTLAEEVTPLNDGTVIIDGSANVREINKAFNWHLPEDEARTVNGII” the “soluble on expression in E. coli” value was “soluble”. In the case of “MGSDKIHHHHHHMEFPGVKALDDVHFSVKRGEIHALVGANGAGKSTLMKVLAGAYASYEGTILFDGVPLAIDSPNAAKRAGIEIVYQEVDTALVDYLTVAENICLDMLASGQLKGVIRRRRYEEIAERALQKLKASIDVRQRVSELRLAEKQLVLIARALVQESRFLILDEPTAPLSGRETEQLFRIIRELAEKEHLGVIFISHRLQELFEICESISVMRDGKMVSRQLLAGQTKETVVEQMLGRRLQKSSREARPAGAPSLELDRITVAGQLDEISLTVRAGEVIGIAGLVGAGKTELCKTIFGSIPVTSGLMRLAGETRRIRSAYDAVRLGIGLVPEERRKEGILVADPIEQNMTAASLKQFVNRFGFVEKKKERAAANRIVQQLSIKVSDTRQRAAELSGGNQQKVAIGKWLLADASVLVLDEPTKGVDVGAKAEIFQVIDQLAAEQKAVIYASSELDELLAVTDRIYVMYDGQIVFEATTSETTEEQLLWYATGGQQHE”, the “soluble on expression in E. coli” value was “not soluble”. With “MSLAKTIAYLRVSTSQQDLKNQKFEILDYAQKNGLSIDDFVEVEISSRKSVEERKIDYLVSMLSQGDRVIVSELSRIGRSTVEVLNIINELASKKVFLIAIKQNLNINGSENLQAKVMVTMFSLFAELERDLISDRTKRALEARKAAGVKLGRPKGATGVSKLDGMEGQITELLRKQVSLSSIAKIFSVSRGTVYSFIATRGLTAEGHHHHHH” the “soluble on expression in E. coli” value was “not soluble”.
